Laboratory results: patent US20140087995A1 (published 2014)
Numbered stars: 1 amine (or outer) side, 2 acyl side, 3 side chain; on linkers, the order of the positions; unused ones are H or OH. Bridge positions count the residues as written; N and C are the ends. * marks the point of attachment. C20 diacid = O=C(O)CCCCCCCCCCCCCCCCCCC(=O)*; γGlu = O=C(O)[C@H](CCC(=O)[*:2])N[*:1]

T1: human amylin receptor (amylin 3(a) receptor: human calcitonin receptor with RAMP-3) (human, UniProt P30988 25-474; O60896 24-148)
T1 construct: whole, on cells; also called hAmylin-R; hAmylinR
T1 sequence (looked up) 1: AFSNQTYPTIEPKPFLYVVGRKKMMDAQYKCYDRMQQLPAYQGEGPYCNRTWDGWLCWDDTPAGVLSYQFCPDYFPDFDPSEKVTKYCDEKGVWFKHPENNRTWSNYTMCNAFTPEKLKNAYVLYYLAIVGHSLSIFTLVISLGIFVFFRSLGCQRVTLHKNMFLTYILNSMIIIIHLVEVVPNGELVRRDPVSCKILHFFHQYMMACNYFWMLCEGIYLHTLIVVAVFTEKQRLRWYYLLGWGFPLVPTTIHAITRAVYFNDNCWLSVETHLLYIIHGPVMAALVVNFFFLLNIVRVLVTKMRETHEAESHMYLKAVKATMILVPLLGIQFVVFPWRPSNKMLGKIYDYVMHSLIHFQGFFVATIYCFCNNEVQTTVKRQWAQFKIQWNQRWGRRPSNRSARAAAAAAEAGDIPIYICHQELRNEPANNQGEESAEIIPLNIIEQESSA
T1 sequence (looked up) 2: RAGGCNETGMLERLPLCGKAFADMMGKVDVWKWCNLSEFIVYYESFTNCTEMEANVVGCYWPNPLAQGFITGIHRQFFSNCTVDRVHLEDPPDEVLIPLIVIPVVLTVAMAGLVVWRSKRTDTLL

B1: N^α1-[(4S)-4-carboxy-4-(19-carboxynonadecanoylamino)butanoyl]-[Glu14,Arg17,Pro21,Pro26,Pro37]-h-amylin (peptide)
peptide: {C20 diacid-γGlu}-KCNTATCATQRLAEFLRHSSPNFGAPLSSTNVGSNTP-NH2
modifications: disulfide 2-7
SMILES: CC(C)C[C@H](NC(=O)[C@H](CCCNC(=N)N)NC(=O)[C@H](CCC(N)=O)NC(=O)[C@@H](NC(=O)[C@H](C)NC(=O)[C@@H]1CSSC[C@H](NC(=O)[C@H](CCCCN)NC(=O)CC[C@H](NC(=O)CCCCCCCCCCCCCCCCCCC(=O)O)C(=O)O)C(=O)N[C@@H](CC(N)=O)C(=O)N[C@@H]([C@@H](C)O)C(=O)N[C@@H](C)C(=O)N[C@@H]([C@@H](C)O)C(=O)N1)[C@@H](C)O)C(=O)N[C@@H](C)C(=O)N[C@@H](CCC(=O)O)C(=O)N[C@@H](Cc1ccccc1)C(=O)N[C@@H](CC(C)C)C(=O)N[C@@H](CCCNC(=N)N)C(=O)N[C@@H](Cc1c[nH]cn1)C(=O)N[C@@H](CO)C(=O)N[C@@H](CO)C(=O)N1CCC[C@H]1C(=O)N[C@@H](CC(N)=O)C(=O)N[C@@H](Cc1ccccc1)C(=O)NCC(=O)N[C@@H](C)C(=O)N1CCC[C@H]1C(=O)N[C@@H](CC(C)C)C(=O)N[C@@H](CO)C(=O)N[C@@H](CO)C(=O)N[C@H](C(=O)N[C@@H](CC(N)=O)C(=O)N[C@H](C(=O)NCC(=O)N[C@@H](CO)C(=O)N[C@@H](CC(N)=O)C(=O)N[C@H](C(=O)N1CCC[C@H]1C(N)=O)[C@@H](C)O)C(C)C)[C@@H](C)O
notes: also called compound 5
B2: N^α1-[(4S)-4-carboxy-4-(19-carboxynonadecanoylamino)butanoyl]-[Glu14,Arg17,Pro21,Pro27,Asp35,Pro37]-h-amylin (peptide)
peptide: {C20 diacid-γGlu}-KCNTATCATQRLAEFLRHSSPNFGAIPSSTNVGSDTP-NH2
modifications: disulfide 2-7
SMILES: CC[C@H](C)[C@H](NC(=O)[C@H](C)NC(=O)CNC(=O)[C@H](Cc1ccccc1)NC(=O)[C@H](CC(N)=O)NC(=O)[C@@H]1CCCN1C(=O)[C@H](CO)NC(=O)[C@H](CO)NC(=O)[C@H](Cc1c[nH]cn1)NC(=O)[C@H](CCCNC(=N)N)NC(=O)[C@H](CC(C)C)NC(=O)[C@H](Cc1ccccc1)NC(=O)[C@H](CCC(=O)O)NC(=O)[C@H](C)NC(=O)[C@H](CC(C)C)NC(=O)[C@H](CCCNC(=N)N)NC(=O)[C@H](CCC(N)=O)NC(=O)[C@@H](NC(=O)[C@H](C)NC(=O)[C@@H]1CSSC[C@H](NC(=O)[C@H](CCCCN)NC(=O)CC[C@H](NC(=O)CCCCCCCCCCCCCCCCCCC(=O)O)C(=O)O)C(=O)N[C@@H](CC(N)=O)C(=O)N[C@@H]([C@@H](C)O)C(=O)N[C@@H](C)C(=O)N[C@@H]([C@@H](C)O)C(=O)N1)[C@@H](C)O)C(=O)N1CCC[C@H]1C(=O)N[C@@H](CO)C(=O)N[C@@H](CO)C(=O)N[C@H](C(=O)N[C@@H](CC(N)=O)C(=O)N[C@H](C(=O)NCC(=O)N[C@@H](CO)C(=O)N[C@@H](CC(=O)O)C(=O)N[C@H](C(=O)N1CCC[C@H]1C(N)=O)[C@@H](C)O)C(C)C)[C@@H](C)O
notes: also called 11; compound 11
B3: N^α1-[(4S)-4-carboxy-4-(19-carboxynonadecanoylamino)butanoyl]-[Glu14,Arg17,Pro21,Pro26]-h-amylin (peptide)
peptide: {C20 diacid-γGlu}-KCNTATCATQRLAEFLRHSSPNFGAPLSSTNVGSNTY-NH2
modifications: disulfide 2-7
SMILES: CC(C)C[C@H](NC(=O)[C@H](CCCNC(=N)N)NC(=O)[C@H](CCC(N)=O)NC(=O)[C@@H](NC(=O)[C@H](C)NC(=O)[C@@H]1CSSC[C@H](NC(=O)[C@H](CCCCN)NC(=O)CC[C@H](NC(=O)CCCCCCCCCCCCCCCCCCC(=O)O)C(=O)O)C(=O)N[C@@H](CC(N)=O)C(=O)N[C@@H]([C@@H](C)O)C(=O)N[C@@H](C)C(=O)N[C@@H]([C@@H](C)O)C(=O)N1)[C@@H](C)O)C(=O)N[C@@H](C)C(=O)N[C@@H](CCC(=O)O)C(=O)N[C@@H](Cc1ccccc1)C(=O)N[C@@H](CC(C)C)C(=O)N[C@@H](CCCNC(=N)N)C(=O)N[C@@H](Cc1c[nH]cn1)C(=O)N[C@@H](CO)C(=O)N[C@@H](CO)C(=O)N1CCC[C@H]1C(=O)N[C@@H](CC(N)=O)C(=O)N[C@@H](Cc1ccccc1)C(=O)NCC(=O)N[C@@H](C)C(=O)N1CCC[C@H]1C(=O)N[C@@H](CC(C)C)C(=O)N[C@@H](CO)C(=O)N[C@@H](CO)C(=O)N[C@H](C(=O)N[C@@H](CC(N)=O)C(=O)N[C@H](C(=O)NCC(=O)N[C@@H](CO)C(=O)N[C@@H](CC(N)=O)C(=O)N[C@H](C(=O)N[C@@H](Cc1ccc(O)cc1)C(N)=O)[C@@H](C)O)C(C)C)[C@@H](C)O
notes: also called compound 7
B4: N^α1-[(4S)-4-carboxy-4-(19-carboxynonadecanoylamino)butanoyl]-[Glu14,Arg17,Pro21,Pro27,Pro29]-h-amylin (peptide)
peptide: {C20 diacid-γGlu}-KCNTATCATQRLAEFLRHSSPNFGAIPSPTNVGSNTY-NH2
modifications: disulfide 2-7
SMILES: CC[C@H](C)[C@H](NC(=O)[C@H](C)NC(=O)CNC(=O)[C@H](Cc1ccccc1)NC(=O)[C@H](CC(N)=O)NC(=O)[C@@H]1CCCN1C(=O)[C@H](CO)NC(=O)[C@H](CO)NC(=O)[C@H](Cc1c[nH]cn1)NC(=O)[C@H](CCCNC(=N)N)NC(=O)[C@H](CC(C)C)NC(=O)[C@H](Cc1ccccc1)NC(=O)[C@H](CCC(=O)O)NC(=O)[C@H](C)NC(=O)[C@H](CC(C)C)NC(=O)[C@H](CCCNC(=N)N)NC(=O)[C@H](CCC(N)=O)NC(=O)[C@@H](NC(=O)[C@H](C)NC(=O)[C@@H]1CSSC[C@H](NC(=O)[C@H](CCCCN)NC(=O)CC[C@H](NC(=O)CCCCCCCCCCCCCCCCCCC(=O)O)C(=O)O)C(=O)N[C@@H](CC(N)=O)C(=O)N[C@@H]([C@@H](C)O)C(=O)N[C@@H](C)C(=O)N[C@@H]([C@@H](C)O)C(=O)N1)[C@@H](C)O)C(=O)N1CCC[C@H]1C(=O)N[C@@H](CO)C(=O)N1CCC[C@H]1C(=O)N[C@H](C(=O)N[C@@H](CC(N)=O)C(=O)N[C@H](C(=O)NCC(=O)N[C@@H](CO)C(=O)N[C@@H](CC(N)=O)C(=O)N[C@H](C(=O)N[C@@H](Cc1ccc(O)cc1)C(N)=O)[C@@H](C)O)C(C)C)[C@@H](C)O
notes: also called 37; compound 37
B5: N^α1-[(4S)-4-carboxy-4-(19-carboxynonadecanoylamino)butanoyl]-[Glu14,Arg17,Pro21,Pro27,His35]-h-amylin (peptide)
peptide: {C20 diacid-γGlu}-KCNTATCATQRLAEFLRHSSPNFGAIPSSTNVGSHTY-NH2
modifications: disulfide 2-7
SMILES: CC[C@H](C)[C@H](NC(=O)[C@H](C)NC(=O)CNC(=O)[C@H](Cc1ccccc1)NC(=O)[C@H](CC(N)=O)NC(=O)[C@@H]1CCCN1C(=O)[C@H](CO)NC(=O)[C@H](CO)NC(=O)[C@H](Cc1c[nH]cn1)NC(=O)[C@H](CCCNC(=N)N)NC(=O)[C@H](CC(C)C)NC(=O)[C@H](Cc1ccccc1)NC(=O)[C@H](CCC(=O)O)NC(=O)[C@H](C)NC(=O)[C@H](CC(C)C)NC(=O)[C@H](CCCNC(=N)N)NC(=O)[C@H](CCC(N)=O)NC(=O)[C@@H](NC(=O)[C@H](C)NC(=O)[C@@H]1CSSC[C@H](NC(=O)[C@H](CCCCN)NC(=O)CC[C@H](NC(=O)CCCCCCCCCCCCCCCCCCC(=O)O)C(=O)O)C(=O)N[C@@H](CC(N)=O)C(=O)N[C@@H]([C@@H](C)O)C(=O)N[C@@H](C)C(=O)N[C@@H]([C@@H](C)O)C(=O)N1)[C@@H](C)O)C(=O)N1CCC[C@H]1C(=O)N[C@@H](CO)C(=O)N[C@@H](CO)C(=O)N[C@H](C(=O)N[C@@H](CC(N)=O)C(=O)N[C@H](C(=O)NCC(=O)N[C@@H](CO)C(=O)N[C@@H](Cc1c[nH]cn1)C(=O)N[C@H](C(=O)N[C@@H](Cc1ccc(O)cc1)C(N)=O)[C@@H](C)O)C(C)C)[C@@H](C)O
notes: also called 18; compound 18
B6: N^α1-[(4S)-4-carboxy-4-(19-carboxynonadecanoylamino)butanoyl]-[Glu14,Arg17,Pro21,Pro27,Arg35]-h-amylin (peptide)
peptide: {C20 diacid-γGlu}-KCNTATCATQRLAEFLRHSSPNFGAIPSSTNVGSRTY-NH2
modifications: disulfide 2-7
SMILES: CC[C@H](C)[C@H](NC(=O)[C@H](C)NC(=O)CNC(=O)[C@H](Cc1ccccc1)NC(=O)[C@H](CC(N)=O)NC(=O)[C@@H]1CCCN1C(=O)[C@H](CO)NC(=O)[C@H](CO)NC(=O)[C@H](Cc1c[nH]cn1)NC(=O)[C@H](CCCNC(=N)N)NC(=O)[C@H](CC(C)C)NC(=O)[C@H](Cc1ccccc1)NC(=O)[C@H](CCC(=O)O)NC(=O)[C@H](C)NC(=O)[C@H](CC(C)C)NC(=O)[C@H](CCCNC(=N)N)NC(=O)[C@H](CCC(N)=O)NC(=O)[C@@H](NC(=O)[C@H](C)NC(=O)[C@@H]1CSSC[C@H](NC(=O)[C@H](CCCCN)NC(=O)CC[C@H](NC(=O)CCCCCCCCCCCCCCCCCCC(=O)O)C(=O)O)C(=O)N[C@@H](CC(N)=O)C(=O)N[C@@H]([C@@H](C)O)C(=O)N[C@@H](C)C(=O)N[C@@H]([C@@H](C)O)C(=O)N1)[C@@H](C)O)C(=O)N1CCC[C@H]1C(=O)N[C@@H](CO)C(=O)N[C@@H](CO)C(=O)N[C@H](C(=O)N[C@@H](CC(N)=O)C(=O)N[C@H](C(=O)NCC(=O)N[C@@H](CO)C(=O)N[C@@H](CCCNC(=N)N)C(=O)N[C@H](C(=O)N[C@@H](Cc1ccc(O)cc1)C(N)=O)[C@@H](C)O)C(C)C)[C@@H](C)O
notes: also called 16; compound 16

Target: T1, human amylin receptor (amylin 3(a) …)
Assay: SPA displacement of 125I-rat amylin, hAmylin 3(a) receptor membranes
Method: The binding assay was performed using scintillation proximity assay (SPA) beads (RPNQ0001) from PerkinElmer and cell membranes from the Amylin 3(a)/CRE-luc cells (as described in Assay (II)) were used. Membranes were prepared in the following way; the cells were rinsed with PBS and incubated with Versene for approximately 5 min before harvesting. The cells were flushed with PBS and the cell-suspension was centrifuged for 5 min at 1000 rpm. Cells were homogenized (ultrathurrax) in a buffer containing 20 mM Na-HEPES and 10 mM EDTA (pH 7.4) and centrifuged at 20.000 rpm for 15 min. The resulting pellet was resuspended, homogenized and centrifuged (20.000 rpm, 15 min) in a buffer containing 20 mM Na-HEPES and 0.1 mM EDTA (pH 7.4, buffer 2). The resulting pellet was resuspended in buffer 2 and protein concentration was measured (BCA protein Assay, Pierce). The homogenate was kept cold during the whole procedure. The membranes were kept at −80° C. until use. The assay was performed in a 384 well Optiplate (PerkinElmer) in a total volume of 40 ul. Membranes were mixed with SPA beads. Final concentration of membranes 35 ng/μL final and SPA beads was 0.05 mg/well. Test-compounds were dissolved in DMSO and further diluted in assay buffer (50 mM Hepes, pH 7.4, 1 mM CaCl2, 5 mM MgCl₂, 0.1% OA and 0.02% Tween20). […] The final mixture was incubated with shaking at 400 rpm for 120 min at 25° C. prior to centrifugation (1500 rpm, 10 min). Samples were analyzed on TopCounter™ (Packard). The IC₅₀ was calculated using (one site binding competition analysis) GraphPad Prism5 as a measure of receptor affinity.

Row | IC50 [nM] | Binder
1 | 0.374 | B1
2 | 0.105 | B2
3 | 0.674 | B3
4 | 0.97 | B4
5 | 0.554 | B5
6 | 0.894 | B6
